According to patent publication US20250026813A1 (published 2025):

B1: YANG-1118 (antibody, V domains shown)
VH: EVQLVESGGGLVKPGGSLRLSCAASGFTFSSYALNWVRQAPGKGLEWVSSISTGSSYIFYADSVKGRFTISRDNAKHSLSLQMNSLRAEDTAVYYCAKTGDLPFFDYWGQGTLVTVSS
VL: QSALTQPASVSGSPGQSITISCTGTSSDVGRYNYVSWYQQHPGKAPKLMIYEVSNRPSGVSNRFSGSKSGNTASLTISGLQAEDEADYYCISYTSSSTMVFGGGTKLTVL
B2: YANG-1201 (antibody, V domains shown)
VH: QVQLQESGPGLVKPSGTLSLTCAVSGDSISNSKWWSWVRQPPGKGLEWIGEIFHSGSTNYNPSLKSRVTISVDKSQNQFSLKLNSVTAADTAVYYCARSASLYYYYGVDVWGQGTTVTVSS
VL: EIVLTQSPGTLSLSPGERATLSCRASQSVSNNYLAWYQQKPGQAPRLLIYGTSRRDTGIPDRFSGSGSGTDFTLTISRLEPEDFAVYYCEQYGSLPRTFGQGTKVEIK
B3: YANG-1202 (antibody, V domains shown)
VH: EMQLVESGGGLVQPGGSLRLSCAASGFTFSSFWMRWVRQAPGKGLEWVANIKQDGTEKYYVDSVKGRFTISRDNAKNSLYLQMNSLRAEDTAVYYCVRDRVGGDYYYYDMDVWGQGTTVTVSS
VL: DIQMTQSPSSLSASVGDRVTITCRASQDISNYLAWFQQKPGKAPKSLIYAASSLQSGVPSKFSGSGSGTDFTLTISGLQPEDSATYYCQQYNSYPRTFGQGTKVEIK
B4: YANG-1203 (antibody, V domains shown)
VH: EVRLVESGGALVQPGRSLRLSCAASGFIFDGYAMHWVRQVPGKGLEWVSGISWNSGNIGYADSVKGRFTISRDNAKNSLYLQMNSLRAEDTALYYCAKDIRPSGKYYYGMDVWGQGTTVTVSS
VL: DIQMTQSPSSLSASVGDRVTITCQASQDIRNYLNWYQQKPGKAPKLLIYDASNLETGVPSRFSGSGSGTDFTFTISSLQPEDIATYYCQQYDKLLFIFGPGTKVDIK
B5: YANG-1204 (antibody, V domains shown)
VH: QVQLVESGGGVVQPGRSLRLSCAVSGFTFSNYGIHWVRQAPGKGLVWVAVISYEGSIKYYGDSVKGRFTISRDNSKNTLYLQMNSLRAEDTAVYYCARGAVAGNDAFDIWGQGTMVTVSS
VL: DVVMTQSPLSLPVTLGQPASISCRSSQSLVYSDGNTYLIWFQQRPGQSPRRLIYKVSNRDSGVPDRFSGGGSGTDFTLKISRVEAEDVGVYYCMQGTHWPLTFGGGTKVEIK
B6: YANG-1205 (antibody, V domains shown)
VH: QVQLVQSGAEVKKPGASVKVSCKASGYTFTSYCIHWVRQAPGQGLEWMGIINPSGGGTIFAQKFQGRVTMTRDTSTTTVYMELGSLRSDDTALYYCARGWSYDFWSGPDYWGQGTLVSVSS
VL: DIVMTQTPLSLSVTPGQPASISCKSSQSLLHSDGKTYLYWYLQKPGQPPQLLIYEVSNRFSGVPDRFSGSGSGTDFTLKISRVGAEDVGIYYCMHSIKLPPTFGQGTKVEIK
B7: YANG-1206 (antibody, V domains shown)
VH: QVHLVESGGGMVQPGRSLRLSCAASGFTFSIYAMHWVRQAPGKGLEWVAVISYDGSNKYYADSVKGRFTISRDNSKNTLYLQMNSLRAEDTAVYYCAKVYGGSYWGGFDYWGQGTLVTVSS
VL: QSVLTQPPSVSGAPGQRVTISCTGTSSNIGSIYDVHWYQQLPGTAPKLLIYGNSNRPSGVPDRFSGSKSGTSASLAITGLQAEDEADYYCQSYDTSLSGSWVFGGGTKLNVL
B8: YANG-1207 (antibody, V domains shown)
VH: QVQLVESGGGVVQPGRSLRLSCAASGFTFSSYGMHWVRQAPGKGLEWVSVIWYDGTNKYYADSVKGRFTISRDNSKNTLYLQMNSLRAEDTAVYYCAREGVEFTGYFDYWGQGTLVTVSS
VL: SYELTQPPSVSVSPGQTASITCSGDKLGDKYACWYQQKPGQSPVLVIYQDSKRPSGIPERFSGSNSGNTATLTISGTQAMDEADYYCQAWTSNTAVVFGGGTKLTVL
B9: IMPI-002 (antibody, V domains shown)
VH: EVQLVESGGGLIQPGGSLRLSCAASGVTVSSNYMSWVRQAPGKGLEGVSVIYSGGSTYYADSVKGRFTISRDNSKNTLYLQMNSLRAEDTAVYYCARDTVVYGMDVWGQGTTVTVSS
VL: DIQLTQSPSFLSASVGDRVTITCWASQGISSYLAWYQQKPGKAPKLLIYAASTLQSGVPSRFSGSGSGTEFTLTISSLQPEDFATYYCQQLNSYPLTFGGGTKVEIK
B10: IMPI-056 (antibody, V domains shown)
VH: EVQLVESGGGLIQPGGSLRLSCAASGLTVSSNYMNWVRQAPGKKLEWVSVIYSGGSTFYADSVRGRFTISRDNSKNTLFLQMNSLRAEDSAVYYCARDLGPYGVDVWGQGTTVTVSS
VL: DIQLTQSPSFLSASVGDRVTITCWASQGISSYLAWYQQKPGKAPKLLIYAASTLQSGVPSRFSGSGSGTEFTLTISSLQPEDFATYYCQQLNSYPLTFGQGTRLEIK
B11: IMPI-052 (antibody, V domains shown)
VH: EVQLVESGGGLIQPGGSLRLSCAASGVTVSSNYMNWVRQAPGKGLEGVSVIYSGGTTYYADSVKGRFTISRDNSKNTLYLQMNSLRAEDTAVYYCARDTVVYGMDVWGQGTTVTVSS
VL: DIQLTQSPSFLSASVGDRVTITCWASQGISSYLAWYQQKPGKAPKLLIYTASTLQSGVPSRFSGSGSGTEFTLTISSLQPEDFATYYCQQLNSYPLTFGGGTKVEIK
B12: IMPI-067 (antibody, V domains shown)
VH: QVQLVESGGGVVQPGTSLRLSCAASGFTFNSFGMHWVRQAPGKGLEWVAVISYDGSSKYYADSVKGRFTISRDNSKNTLYLQMNSLRAEDTAVYYCAKDEGDYDDYYYGMDVWGQGTTVTVSS
VL: EIVLTQSPGSLSLSPGERATLSCRASQSLSSRYLAWYHQKPGQAPRLLIYGASSRATGIPDRFSGSGSGTDFTLTISGLEPEDFAVYYCQQYGNSITFGGGTKVEIK
B13: IMPI-068 (antibody, V domains shown)
VH: QVQLVESGGDVVQPGRSLRLSCAASGFTFSRYGMHWVRQAPGKGLEWVAVISYDGSDKYYADSVKGRFTISRDNSKNTLYLQMNSLRAEDTAVYYCAKQLPLYYYYYGMDVWGQGTTVTVSS
VL: AIQLTQSPSSLSASVGDRVTITCRASQGISSALAWYQQKPGKAPNLLIYDASSLESGVPSRFSGSGSGTDFTLTISSLQPEDFATYYCQQFNIYPHTFGPGTKVDIK
B14: IMPI-004 (antibody, V domains shown)
VH: QVQLVESGGGVVQPGRSLRLSCAASGFTFSSYGMHWVRQAPGKGLEWVAVIWYDGGNKYYADSVKGRFTISRDNSKNTLYLQMNSLRAEDTAVYYCARVNVLMGYGMDVWGQGTTVTVSS
VL: EIVLTQSPGTLSLSPGDKATLSCRASQSIISSFLAWYQQKPGQAPRLLIYGASSRATGIPDRFSGSGSGTDFTLTISRLEPEDFAVYYCQQYGSSLTFGGGTKVEIK
B15: IMPI-013 (antibody, V domains shown)
VH: EVQLVESGGGLVQPGRSLRLSCAASGFTFDDYAMHWVRQTPGKGLEWVSGISWNSGSIGYADSVKGRFTISRDNAKNSLYLQMNSLRAEDTALYYCTKDLGLGIGFYYGLDVWGQGTTVTVSS
VL: AIQMTQSPSSLSTSVGDRVTITCRASQGIRNDLGWYQLKPGKAPKLLIYDASTLQSGVPSRFSGSGSGTDFTLTISSLEPEDLATYYCLHHYTYPWTFGHGTKVELK
B16: IMPI-028 (antibody, V domains shown)
VH: EVQLVESGGGLIQPGGSLRLSCAASGFTVSSNYMSWVRQAPGKGLEWVSVIYSGGSTYYADSVKGRFTISRDNSKNTLYLQMNSLRAEDTAVYYCARDYGDLYFDYWGQGTLVTVSS
VL: EIVLTQSPGTLSLSPGERATLSCRASQSISSYLAWYQQKPGQAPRLLIYGASSRATGIPDKFSGSGSGTDFTLTISRLEPEDFAVYYCQQYGSSPRTFGQGTKVEIK

Tests used:
[1] = target: SARS-CoV-2 spike protein bearing furin mutation and truncation in retention sequence, on pseudoviral particles (SARS-CoV-2, UniProt P0DTC2 14-1255); experiment: cell-based or functional assay
[2] = target: full-length stabilised spike trimer protein of SARS-CoV-2 virus (in-house, soluble ECD with trimeris (SARS-CoV-2, UniProt P0DTC2 14-1208; P10104 458-484)

| Binder | PV neutralisation IC50 [1] [nM] | PV neutralization % (Ab 1 ug/mL) [1] [%] | HTRF deltaF [2] [deltaF] |
| --- | --- | --- | --- |
| B1 | 0.25 | 99.3 | – |
| B2 | – | 40.6 | – |
| B3 | – | 51.9 | – |
| B4 | – | 41.4 | – |
| B5 | – | 44.8 | – |
| B6 | – | 40.2 | – |
| B7 | – | 45.9 | – |
| B8 | – | 39.9 | – |
| B9 | – | – | 913 |
| B10 | – | – | 1630 |
| B11 | – | – | 1130 |
| B12 | – | – | 963 |
| B13 | – | – | 1600 |
| B14 | – | – | 952 |
| B15 | – | – | 1420 |
| B16 | – | – | 480 |
